Here are results for three molecules from patent US20220025032A1 (Novartis, published 2022).

Test [1] has as its target T1, Human BTC-avitag-biotin (human, UniProt P35070 32-111, biotin on the avitag).
T1 construct: also called biotin-BTC; soluble human BTC-avitag-biotin
T1 sequence: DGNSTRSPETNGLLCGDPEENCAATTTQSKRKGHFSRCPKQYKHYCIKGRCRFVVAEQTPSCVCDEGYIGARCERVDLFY
The test can be described thus: flow cytometry: inhibition of biotin-BTC binding to HKB11 cells over-expressing ErbB4; y axis Fluorescent Intensity. The protocol:
(§1) In order to assess potency of the Fabs and bispecific in neutralizing binding of BTC to its receptor Erb 1 or ErbB4, the following assay was performed. HKB11 over-expressing either ErbB1 or ErbB4 cells were plated 1×10⁵ cells/well. Cells were washed once with FACS buffer by spun down at 1200 rpm for 5 minutes and supernatant removed. Next, the Fab sample dilutions and BTC were prepared in FACS buffer. Human BTC-avitag-biotin was diluted to a fixed concentration of 15 nM. The test Fab samples were prepared at a starting concentration of 40 nM and titrated for 9 points at a serial dilution of 1:2. Both biotin-BTC and the test Fab samples are incubated for 30 minutes at room temperature. The pre-incubated samples were then added to the cell plate at 100 μl per well in duplicate and incubated for 1 hour on ice. The plate was then washed once in FACS buffer and spun down at 1200 rpm for 5 minutes and supernatant removed. After suspending the cell pellet with 100 μl/well of diluted secondary antibody streptavidin-Alexa Fluor488 (1:2000) in FACS buffer, the cells were then incubated for 60 min on ice. The cells were washed once with FACS buffer and re-suspended in 120 μl of FACS buffer for flow cytometric analysis.
(§2) Measurements were performed on Attune Flow Cytometry machine. Data were analysed using the Flow Jo software. The live cell populations analysed were gated in forward and side scattering (FSC-A/SSC-A dot plot). The interval gate was established on the control histogram, which was obtained with sample incubated in streptavidin-Alexa Fluor488 only, and subsequently, determined percent of positive binding events of cells carrying membrane-bound receptor ErbB1 or ErbB4 and biotin-BTC. The median of fluorescence intensity (MFI) value was also derived for the live cell population. MFI values were then used to calculate for percent inhibition of test sample and subsequently plotted in GraphPad Prism 7.03 using nonlinear regression (curve fit) model to generate IC50 value.
A general note: A flow cytometer gives signals particle by particle.

The target of test [2] is T1, Human BTC-avitag-biotin. The test can be described thus: flow cytometry: inhibition of biotin-BTC binding to HKB11 cells over-expressing ErbB1; y axis Fluorescent Intensity. The protocol: as §1, §2
The target of test [3] is T2, Human VEGF165 (human, UniProt P15692 27-191).
T2 construct: mature; biotinylated in the VEGFR2 ELISAs; also called human VEGF-A; VEGF-A
T2 sequence (P15692 other isoform, or with tags, fused parts or gaps): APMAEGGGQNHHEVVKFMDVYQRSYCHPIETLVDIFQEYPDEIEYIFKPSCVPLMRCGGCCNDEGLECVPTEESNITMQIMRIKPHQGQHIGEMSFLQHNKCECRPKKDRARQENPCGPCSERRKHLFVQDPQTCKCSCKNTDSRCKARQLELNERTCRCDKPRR
The test can be described thus: SPR Biacore T200, anti-Fab capture, antigen as analyte. For orientation: SPR reads the build-up and loss of mass on a sensor chip optically.

The target in the next test is T3, Human BTC (human, UniProt P35070 32-111).
T3 construct: Soluble human BTC of the Biacore, ELISA, MSD and cell assays; also called human betacellulin; soluble human BTC
T3 sequence: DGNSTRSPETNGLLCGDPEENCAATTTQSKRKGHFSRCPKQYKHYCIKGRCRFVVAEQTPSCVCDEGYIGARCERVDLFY
The test is described as above.

In test [4] the target is T2, Human VEGF165. Put plainly: competition ELISA: antibody pre-incubated with 400 pM VEGF-biotin, added to coated VEGFR2, streptavidin-HRP detection; y axis OD. The protocol: (§3) The plates were then washed 3 times using 1λTBST. The plates were blocked in 2% BSA diluent (0.1% Tween 20/0.1% TirtonX100) overnight. After blocking, the plates were washed 3 times using TB ST and then the sample mixture was added at 20 μl/well. The sample mixture consisted a final fixed concentration of VEGF-biotin (in-house) at 400 pM and a 15 point 1:2 serial dilution of the antibody starting at 20 nM. The sample mixture was pre-incubated for 1 hour prior to adding to the plate and then incubated for another hour at room temperature on the plate. Afterwards, the plate was washed 3 times using TBST and 20 μl/well of Streptavidin-HRP diluted at 1:5000 was added for an incubation time of 1 hour. The plates were washed 3 times in TBST and then 20 μl/well of TMB substrate was added. TMB is a chromogen that yields a blue color when oxidized. TMB was incubated for 10 minutes until the signal saturated in the no antibody samples, and then 10 μl/well of 2N sulfuric acid was added which then changes the blue color to yellow and this now has a maximum absorbance at 450 nm.
Background: ELISA stands for enzyme-linked immunosorbent assay.

In test [5] the target is T2, Human VEGF165. Described as above. As for the experimental part: as §3
The source holds these as a separate data set.

For test [6], the target named is T4, membrane-bound human BTC on 293F-hBTC cells (human, UniProt P35070 32-111).
T4 construct: the transfected construct is not described; also called membrane-anchored BTC
T4 sequence: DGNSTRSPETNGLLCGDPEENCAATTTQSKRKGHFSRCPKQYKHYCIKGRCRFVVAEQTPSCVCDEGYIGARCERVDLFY
Put plainly: flow cytometry on 293F cells with membrane-bound human BTC; y axis % Pos Binding. The protocol:
After washing the cells, the cells were dissociated using Versene at 37° C. The cells were washed with FACS buffer and plated at 100 μl in a 96 well plate using cells at 1×10⁶ cells/ml. Then 100 μl of a serial dilution of antibodies starting at 50 nM was used. The cells were incubated, washed and then treated with the secondary anti-human Fab-FITC antibody. The antibodies only bound to the cells expressing BTC. After which the cells were washed and analyzed on the Attune Flow Cytometry. All data analysis was carried out using Flow Jo software.
In FIG. 6A, Flow cytometry was used to assess the binding of NVS11 to membrane-bound BTC using an anti-human Fab antibody for detection.

Where two headings read alike, the source gives them in different places.

B1: NVS14 (bispecific antibody)
heavy: QVQLLESGGGLVQPGGSLRLSCAASGFTFSRYWISWVRQAPGKGLEWVSYIDSTGTFINYADSVKGRFTISRDNSKNTLYLQMNSLRAEDTAVYYCARGGSLFDYWGQGTLVTVSSASTKGPSVFPLAPSSKSTSGGTAALGCLVKDYFPEPVTVSWNSGALTSGVHTFPAVLQSSGLYSLSSVVTVPSSSLGTQTYICNVNHKPSNTKVDKRVEPKSCGSGGGGSGGGGSGGGEVQLVESGGGLVQPGGSLRLSCTASGFSLTDYYYMTWVRQAPGKGLEWVGFIDPDDDPYYATWAKGRFTISRDNSKNTLYLQMNSLRAEDTAVYYCAGGDHNSGWGLDIWGQGTLVTVSSASTKGPSVFPLAPSSKSTSGGTAALGCLVKDYFPEPVTVSWNSGALTSGVHTFPAVLQSSGLYSLSSVVTVPSSSLGTQTYICNVNHKPSNTKVDKRVEPKSC
light: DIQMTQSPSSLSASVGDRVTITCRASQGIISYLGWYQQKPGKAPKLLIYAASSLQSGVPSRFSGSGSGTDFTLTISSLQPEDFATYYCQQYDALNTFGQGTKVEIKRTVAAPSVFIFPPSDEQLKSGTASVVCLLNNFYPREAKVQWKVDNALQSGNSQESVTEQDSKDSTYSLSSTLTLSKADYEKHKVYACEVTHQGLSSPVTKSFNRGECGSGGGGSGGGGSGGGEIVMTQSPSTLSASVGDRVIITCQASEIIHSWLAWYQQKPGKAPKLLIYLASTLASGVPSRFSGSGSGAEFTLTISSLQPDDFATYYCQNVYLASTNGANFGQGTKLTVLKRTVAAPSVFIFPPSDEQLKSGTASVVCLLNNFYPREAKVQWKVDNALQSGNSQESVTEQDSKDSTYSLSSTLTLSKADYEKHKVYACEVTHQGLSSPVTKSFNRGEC
notes: Fab-Fab: NVS4 Fab, (GSGGG)3 linker, NVS8 Fab; also called anti-BTC/anti-VEGF bispecific Fab; bispecific Fab-Fab
Take B1: the values for the half-maximal inhibitory concentration (IC50) with Human BTC-avitag-biotin [1], with Human BTC-avitag-biotin [2] and with Human VEGF165 [4] were 2.32 nM, 2.17 nM and 1.33 nM, respectively. For the same molecule, the dissociation constant (Kd) was determined as 0.016 nM in the test with Human VEGF165 [3] and 0.002 nM with Human BTC.

B2: NVS12 (bispecific antibody)
heavy: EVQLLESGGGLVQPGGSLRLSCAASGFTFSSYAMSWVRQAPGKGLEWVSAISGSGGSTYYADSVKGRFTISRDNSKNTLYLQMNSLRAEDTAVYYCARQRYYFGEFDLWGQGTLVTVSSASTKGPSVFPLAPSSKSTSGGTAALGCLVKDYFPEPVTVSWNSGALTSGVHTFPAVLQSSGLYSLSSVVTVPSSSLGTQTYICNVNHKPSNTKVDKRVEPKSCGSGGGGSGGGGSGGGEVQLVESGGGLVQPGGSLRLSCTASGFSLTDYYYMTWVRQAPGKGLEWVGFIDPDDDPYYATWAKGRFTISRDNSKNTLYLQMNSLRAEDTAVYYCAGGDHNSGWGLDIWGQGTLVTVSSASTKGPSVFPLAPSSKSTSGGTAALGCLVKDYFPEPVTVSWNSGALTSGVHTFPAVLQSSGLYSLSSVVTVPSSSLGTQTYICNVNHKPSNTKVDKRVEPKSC
light: SYELTQPPSVSVSPGQTASITCSGDKLGDKYAYWYQQKPGQSPVLVIYQDSKRPSGIPERFSGSNSGNTATLTISGTQAEDEADYYCQAFDYLYSLGVFGGGTKLTVLGQPKAAPSVTLFPPSSEELQANKATLVCLISDFYPGAVTVAWKADSSPVKAGVETTTPSKQSNNKYAASSYLSLTPEQWKSHRSYSCQVTHEGSTVEKTVAPTECSGSGGGGSGGGGSGGGEIVMTQSPSTLSASVGDRVIITCQASEIIHSWLAWYQQKPGKAPKLLIYLASTLASGVPSRFSGSGSGAEFTLTISSLQPDDFATYYCQNVYLASTNGANFGQGTKLTVLKRTVAAPSVFIFPPSDEQLKSGTASVVCLLNNFYPREAKVQWKVDNALQSGNSQESVTEQDSKDSTYSLSSTLTLSKADYEKHKVYACEVTHQGLSSPVTKSFNRGEC
notes: Fab-Fab: NVS2 Fab, (GSGGG)3 linker, NVS8 Fab; also called anti-BTC/anti-VEGF bispecific Fab; bispecific Fab-Fab
Take B2: the concentration for half-maximal inhibition (IC50) stood at 2.19 nM with Human BTC-avitag-biotin [1], 1.6 nM in the test with Human BTC-avitag-biotin [2] and 1.2 nM with Human VEGF165 [5]. The Kd is 0.017 nM with Human VEGF165 [3] and 0.006 nM in the test with Human BTC. In test [6], this molecule had a concentration giving a half-maximal response (EC50) of 0.137 nM.

B3: NVS13 (bispecific antibody)
heavy: QVQLLESGGGLVQPGGSLRLSCAASGFTFSSYAMSWVRQAPGKGLEWVSGLGHVGYTTYTDSVKGRFTISRDNSKNTLYLQMNSLRAEDTAVYYCARDYLDFGYYFDVWGQGTLVTVSSASTKGPSVFPLAPSSKSTSGGTAALGCLVKDYFPEPVTVSWNSGALTSGVHTFPAVLQSSGLYSLSSVVTVPSSSLGTQTYICNVNHKPSNTKVDKRVEPKSCGSGGGGSGGGGSGGGEVQLVESGGGLVQPGGSLRLSCTASGFSLTDYYYMTWVRQAPGKGLEWVGFIDPDDDPYYATWAKGRFTISRDNSKNTLYLQMNSLRAEDTAVYYCAGGDHNSGWGLDIWGQGTLVTVSSASTKGPSVFPLAPSSKSTSGGTAALGCLVKDYFPEPVTVSWNSGALTSGVHTFPAVLQSSGLYSLSSVVTVPSSSLGTQTYICNVNHKPSNTKVDKRVEPKSC
light: SYELTQPLSVSVALGQTARITCSGDKIGKKYVHWYQQKPGQAPVLVIYDDSDRPSGIPERFSGSNSGNTATLTISRAQAGDEADYYCQAWDMQSVVFGGGTKLTVLGQPKAAPSVTLFPPSSEELQANKATLVCLISDFYPGAVTVAWKADSSPVKAGVETTTPSKQSNNKYAASSYLSLTPEQWKSHRSYSCQVTHEGSTVEKTVAPTECSGSGGGGSGGGGSGGGEIVMTQSPSTLSASVGDRVIITCQASEIIHSWLAWYQQKPGKAPKLLIYLASTLASGVPSRFSGSGSGAEFTLTISSLQPDDFATYYCQNVYLASTNGANFGQGTKLTVLKRTVAAPSVFIFPPSDEQLKSGTASVVCLLNNFYPREAKVQWKVDNALQSGNSQESVTEQDSKDSTYSLSSTLTLSKADYEKHKVYACEVTHQGLSSPVTKSFNRGEC
notes: Fab-Fab: NVS3 Fab, (GSGGG)3 linker, NVS8 Fab; also called anti-BTC/anti-VEGF bispecific Fab; bispecific Fab-Fab
Regarding B3, the IC50 with Human BTC-avitag-biotin [1] was determined as 2.12 nM; with Human BTC-avitag-biotin [2], 1.82 nM. Further, the figures for the equilibrium dissociation constant (Kd) with Human VEGF165 [3] and with Human BTC were 0.0065 nM and 0.0018 nM, respectively. The same molecule gave an EC50 in test [6] of 0.194 nM.

By IC50 is commonly meant the concentration at which inhibition is half-maximal. Broadly, the Kd is the constant that tells how readily two partners part at equilibrium. The EC50 is the concentration giving half of the maximal effect.
